Experimental data published in PMC10866546, “Pseudomonas effector AvrB is a glycosyltransferase that rhamnosylates plant guardee protein RIN4” (Science Advances, 2024).

Target: T1, AvrB (WT), C-terminal 6xHis tag (P. syringae, UniProt P13835 1-321)
T1 construct: AvrB, type III secretion system effector of Pseudomonas syringae; cDNA in pET-29b; source: E. coli BL21 (DE3), purified (Ni2+-NTA)
Test: pull-down; GST-tagged bait (10 μg) and prey (10 μg) with 10 μl glutathione agarose resin in 500 μl of 25 mM Hepes pH 7.4, 150 mM NaCl, 1 mM DTT, 0.1% Triton X-100, 5 mg BSA for blocking; 4°C, 30 min; three washes; SDS-PAGE, Coomassie staining
Conditions: both partners purified

B1: GST-RIN4 T166A (natural protein)
chain: MARSNVPKFGNWEAEENVPYTAYFDKARKTRAPGSKIMNPNDPEYNSDSQSQAPPHPPSSRTKPEQVDTVRRSREHMRSREESELKQFGDAGGSSNEAANKRQGRASQNNSYDNKSPLHKNSYDGTGKSRPKPTNLRADESPEKVTVVPKFGDWDENNPSSADGYAHIFNKVREERSSGANVSGSSRTPTHQSSRNPNNTSSCCCFGFGGK
notes: source: E. coli BL21 (DE3), purified (Ni2+-NTA)
- binding result: binds

B2: GST-RIN4 T166E (natural protein)
chain: MARSNVPKFGNWEAEENVPYTAYFDKARKTRAPGSKIMNPNDPEYNSDSQSQAPPHPPSSRTKPEQVDTVRRSREHMRSREESELKQFGDAGGSSNEAANKRQGRASQNNSYDNKSPLHKNSYDGTGKSRPKPTNLRADESPEKVTVVPKFGDWDENNPSSADGYEHIFNKVREERSSGANVSGSSRTPTHQSSRNPNNTSSCCCFGFGGK
notes: as for B1
- binding result: binds
